Source: patent US20160222124A1 (published 2016)

Assays:
[1] = biological target: human CD40 (cellular) (human, UniProt P25942 21-277); assay: cell-based or functional assay
[2] = biological target: T1, cynomolgus monkey CD40 (cynomolgus monkey, UniProt G7PG38 21-278); assay: ratio of binding EC50 human/cyno; ratio > 1 means increased binding to Cyno compared to Human
T1 construct: whole, on cells; also called Cyno CD40; CD40 on cynomolgus B cells and platelets

human CD40 (cellular), sequence (P25942 21-277): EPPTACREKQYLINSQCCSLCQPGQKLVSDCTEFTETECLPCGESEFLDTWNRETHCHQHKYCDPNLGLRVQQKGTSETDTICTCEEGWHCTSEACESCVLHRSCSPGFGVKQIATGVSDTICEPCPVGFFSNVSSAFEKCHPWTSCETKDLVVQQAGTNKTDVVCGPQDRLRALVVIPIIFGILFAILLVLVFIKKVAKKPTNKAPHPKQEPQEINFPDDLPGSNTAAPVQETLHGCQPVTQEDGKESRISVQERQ

Binder | B cell proliferation: Agonism (SI*) [1] [SI] | Species cross-react.: Hu/Cyno Binding (EC50 ratios) [2]
Antibody A (antibody, human IgG1, kappa, L234A L235A, V domains shown, also called 20E2-12) VH: EVQLVESGGGLVKPGGSLRLSCAASGFTFSDYGMHWVRQAPGKGLEWVAYISSGNRIIYYADTVKGRFTISRDNAKNSLYLQMNSLRAEDTALYYCARQDGYRYAMDYWAQGTLVTVSS VL: DIVMTQSPDSLAVSLGERATMSCKSSQSLLNSGNQKNYLTWHQQKPGQPPKLLIYWTSTRESGVPDRFSGSGSGTDFTLTISSLQAEDVAVYYCQNDYTYPLTFGGGTKVEIKR | < 2 | 3
4D11 (Kirin/Astellas) anti-CD40 antibody (antibody, V domains shown) VH: QLQLQESGPGLLKPSETLSLTCTVSGGSISSPGYYGGWIRQPPGKGLEWIGSIYKSGSTYHNPSLKSRVTISVDTSKNQFSLKLSSVTAADTAVYYCTRPVVRYFGWFDPWGQGTLVTVSS VL: AIQLTQSPSSLSASVGDRVTITCRASQGISSALAWYQQKPGKAPKLLIYDASNLESGVPSRFSGSGSGTDFTLTISSLQPEDFATYYCQQFNSYPTFGQGTKVEIK | < 2 | 

Continued, values first:

B cell proliferation: Agonism (SI*) [1] [SI] | Species cross-react.: Hu/Cyno Binding (EC50 ratios) [2] | Binder
< 2 | 2 | Antibody B (antibody, V domains shown, also called 10E2-1) VH: EVQLVESGGGLVKPGGSLRLSCAASGFTFSDYGMHWVRQAPGKGLEWVAYISSGNRIIYYADTVKGRFTISRDNAKNSLYLQMNSLRAEDTAVYYCARQDGYRYAMDYWGQGTLVTVSS VL: DIVMTQSPDSLAVSLGEKVTINCKSSQSLLNSGNQKNYLTWHQQKPGQPPKLLIYWTSTRESGVPDRFSGSGSGTDFTLTISSLQAEDVAVYYCQNDYTYPLTFGGGTKVEIKR
< 2 | 1 | Antibody C (antibody, V domains shown, also called 2H11-159-94) VH: QVQLVQSGAEVKKPGASVKVSCTASGFNIKDYYVHWVKQAPGQGLEWMGRIDPEDGDSKYAPKFQGKATMTADTSTSTVYMELSSLRSEDTAVYYCTTSYYVGTYGYWGQGTLVTVSS VL: DIQMTQSPSSLSASVGDRVTITCSASSSVSYMLWFQQKPGKAPKLLIYSTSNLASGVPSRFSGSGSGTDFTLTISSLQPEDFATYYCQQRTFYPYTFGGGTKVEIKR
